From article PMC314469, “Protein Interaction Networks by Proteome Peptide Scanning” (PLoS Biology, 2004)
Each block holds one binder with its values, some of them ahead of it.

What was measured:
[1] = target: T1, amphyphisin SH3 (AMPH_HUMAN), P49418; experiment: SPOT array
T1 chain: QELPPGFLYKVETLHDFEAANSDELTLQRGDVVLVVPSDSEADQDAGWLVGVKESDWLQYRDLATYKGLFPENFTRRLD

[2] = target: endophilin SH3 (SH3G2_HUMAN), Q99962; experiment: SPOT array

B1: O00463 504-517 (peptide)
chain: NSSSFKRPDGEMNI
normalised SPOT signal, Boehringer light units (BLU); mean over the file's lines of this peptide [1]: 7.2
normalised SPOT signal, Boehringer light units (BLU); mean over the file's lines of this peptide [2]: 39.5

B3: Q9Y3S6 986-999 (peptide)
chain: NNRVLRRPSERGRA
normalised SPOT signal, Boehringer light units (BLU); mean over the file's lines of this peptide [1]: 150
normalised SPOT signal, Boehringer light units (BLU); mean over the file's lines of this peptide [2]: 652

B5: P23246 281-294 (peptide)
chain: NLSLLRRPGEKTYT
normalised SPOT signal, Boehringer light units (BLU); mean over the file's lines of this peptide [1]: 29.7
normalised SPOT signal, Boehringer light units (BLU); mean over the file's lines of this peptide [2]: 23.4

B8: Q12920 238-251 (peptide)
chain: NIEKIKRPRSSNAE
normalised SPOT signal, Boehringer light units (BLU); mean over the file's lines of this peptide [1]: 26.5
normalised SPOT signal, Boehringer light units (BLU); mean over the file's lines of this peptide [2]: 55.4

B9: Q14181 572-585 (peptide)
chain: ARLYLRRPAADGAE
normalised SPOT signal, Boehringer light units (BLU); mean over the file's lines of this peptide [1]: 43
normalised SPOT signal, Boehringer light units (BLU); mean over the file's lines of this peptide [2]: 91.8

B10: BAC03435 232-246 (peptide)
chain: NVLVPSRPPRNPYD
normalised SPOT signal, Boehringer light units (BLU); mean over the file's lines of this peptide [1]: 4650
normalised SPOT signal, Boehringer light units (BLU); mean over the file's lines of this peptide [2]: 2920

B11: Q13308 4-17 (peptide)
chain: ARGSPARPRRLPLL
normalised SPOT signal, Boehringer light units (BLU); mean over the file's lines of this peptide [1]: 6690
normalised SPOT signal, Boehringer light units (BLU); mean over the file's lines of this peptide [2]: 1930

B13: Q05209 516-529 (peptide)
chain: NSDTPPRPDRLPLD
normalised SPOT signal, Boehringer light units (BLU); mean over the file's lines of this peptide [1]: 125
normalised SPOT signal, Boehringer light units (BLU); mean over the file's lines of this peptide [2]: 0

B14: Q9P2Y5 686-699 (peptide)
chain: NVSSFRRPRRSSDK
normalised SPOT signal, Boehringer light units (BLU); mean over the file's lines of this peptide [1]: 2350
normalised SPOT signal, Boehringer light units (BLU); mean over the file's lines of this peptide [2]: 105

B15: Q05397 868-882 (peptide)
chain: PAAPPKKPPRPGAP
normalised SPOT signal, Boehringer light units (BLU); mean over the file's lines of this peptide [1]: 2460
normalised SPOT signal, Boehringer light units (BLU); mean over the file's lines of this peptide [2]: 792

B16: O95696 687-700 (peptide)
chain: PAAAPRRPFSWEDV
normalised SPOT signal, Boehringer light units (BLU); mean over the file's lines of this peptide [1]: 28
normalised SPOT signal, Boehringer light units (BLU); mean over the file's lines of this peptide [2]: 50.4

B20: Q9H6S7 54-67 (peptide)
chain: NQKQLKRPAQGKRQ
normalised SPOT signal, Boehringer light units (BLU); mean over the file's lines of this peptide [1]: -0
normalised SPOT signal, Boehringer light units (BLU); mean over the file's lines of this peptide [2]: 68.6

B21: O94830 308-321 (peptide)
chain: NSMGIKRPAPQPAS
normalised SPOT signal, Boehringer light units (BLU); mean over the file's lines of this peptide [1]: 24.3
normalised SPOT signal, Boehringer light units (BLU); mean over the file's lines of this peptide [2]: 165

B23: O60306 1318-1331 (peptide)
chain: NNPLIGRPNKVTTV
normalised SPOT signal, Boehringer light units (BLU); mean over the file's lines of this peptide [1]: 45.8
normalised SPOT signal, Boehringer light units (BLU); mean over the file's lines of this peptide [2]: 267

B24: Q96NX9 174-188 (peptide)
chain: NSSRPGRPPKRSLG
normalised SPOT signal, Boehringer light units (BLU); mean over the file's lines of this peptide [1]: 4020
normalised SPOT signal, Boehringer light units (BLU); mean over the file's lines of this peptide [2]: 18800

B26: Q9Y284 5-18 (peptide)
chain: NMSDPRRPNKVLRY
normalised SPOT signal, Boehringer light units (BLU); mean over the file's lines of this peptide [1]: 641
normalised SPOT signal, Boehringer light units (BLU); mean over the file's lines of this peptide [2]: 1060

B27: Q9NZB2 597-610 (peptide)
chain: PAALLYRPVRQYVY
normalised SPOT signal, Boehringer light units (BLU); mean over the file's lines of this peptide [1]: 379
normalised SPOT signal, Boehringer light units (BLU); mean over the file's lines of this peptide [2]: 430

B28: Q92186 286-299 (peptide)
chain: NKVHIKRPTTGLLM
normalised SPOT signal, Boehringer light units (BLU); mean over the file's lines of this peptide [1]: 32.2
normalised SPOT signal, Boehringer light units (BLU); mean over the file's lines of this peptide [2]: 125

B29: O75560 490-503 (peptide)
chain: NLFGPKRPKALKLL
normalised SPOT signal, Boehringer light units (BLU); mean over the file's lines of this peptide [1]: 113
normalised SPOT signal, Boehringer light units (BLU); mean over the file's lines of this peptide [2]: 1970

B30: P00533 1094-1107 (peptide)
chain: NQSVPKRPAGSVQN
normalised SPOT signal, Boehringer light units (BLU); mean over the file's lines of this peptide [1]: 23.4
normalised SPOT signal, Boehringer light units (BLU); mean over the file's lines of this peptide [2]: 26.5

B31: Q9ULP1 1037-1050 (peptide)
chain: NKIEFKRPGKAANK
normalised SPOT signal, Boehringer light units (BLU); mean over the file's lines of this peptide [1]: 124
normalised SPOT signal, Boehringer light units (BLU); mean over the file's lines of this peptide [2]: 128

B33: Q9UN79 402-415 (peptide)
chain: NSSHIKRPMNAFMV
normalised SPOT signal, Boehringer light units (BLU); mean over the file's lines of this peptide [1]: 37.1
normalised SPOT signal, Boehringer light units (BLU); mean over the file's lines of this peptide [2]: 176

B35: Q9Y2K9 813-827 (peptide)
chain: NRWGPGRPPFRKAQ
normalised SPOT signal, Boehringer light units (BLU); mean over the file's lines of this peptide [1]: 67.5
normalised SPOT signal, Boehringer light units (BLU); mean over the file's lines of this peptide [2]: 6400

B36: Q9Y2E7 460-474 (peptide)
chain: NTAKPTRPPSESSS
normalised SPOT signal, Boehringer light units (BLU); mean over the file's lines of this peptide [1]: 48.6
normalised SPOT signal, Boehringer light units (BLU); mean over the file's lines of this peptide [2]: 141

B37: Q9Y2L0 734-747 (peptide)
chain: NTFHILRPTKAPGF
normalised SPOT signal, Boehringer light units (BLU); mean over the file's lines of this peptide [1]: 194
normalised SPOT signal, Boehringer light units (BLU); mean over the file's lines of this peptide [2]: 256

B39: Q9P2M9 345-358 (peptide)
chain: NIQTLDRPIKKGPV
normalised SPOT signal, Boehringer light units (BLU); mean over the file's lines of this peptide [1]: 16.4
normalised SPOT signal, Boehringer light units (BLU); mean over the file's lines of this peptide [2]: 58.7

B41: Q9Y310 97-110 (peptide)
chain: NYKNIKRPPGDIMF
normalised SPOT signal, Boehringer light units (BLU); mean over the file's lines of this peptide [1]: 19
normalised SPOT signal, Boehringer light units (BLU); mean over the file's lines of this peptide [2]: 36

Continued, values first:

normalised SPOT signal, Boehringer light units (BLU); mean over the file's lines of this peptide [1]: 3660
normalised SPOT signal, Boehringer light units (BLU); mean over the file's lines of this peptide [2]: 452
B2: Q9ULU1 327-340 (peptide)
chain: NMNRFDRPDRNVRQ

normalised SPOT signal, Boehringer light units (BLU); mean over the file's lines of this peptide [1]: 497
normalised SPOT signal, Boehringer light units (BLU); mean over the file's lines of this peptide [2]: 81.5
B4: Q9H247 116-129 (peptide)
chain: NSPTLERPGRKRKW

normalised SPOT signal, Boehringer light units (BLU); mean over the file's lines of this peptide [1]: 43.8
normalised SPOT signal, Boehringer light units (BLU); mean over the file's lines of this peptide [2]: 505
B6: Q9BX63 202-216 (peptide)
chain: NSFSPQKPPGHSSR

normalised SPOT signal, Boehringer light units (BLU); mean over the file's lines of this peptide [1]: 678
normalised SPOT signal, Boehringer light units (BLU); mean over the file's lines of this peptide [2]: 3150
B7: Q9NQE0 226-239 (peptide)
chain: ARLPPPRPQRPAET

normalised SPOT signal, Boehringer light units (BLU); mean over the file's lines of this peptide [1]: 318
normalised SPOT signal, Boehringer light units (BLU); mean over the file's lines of this peptide [2]: 102
B12: P15538 413-426 (peptide)
chain: NPALFPRPERYNPQ

normalised SPOT signal, Boehringer light units (BLU); mean over the file's lines of this peptide [1]: 1620
normalised SPOT signal, Boehringer light units (BLU); mean over the file's lines of this peptide [2]: 2290
B17: P47901 342-355 (peptide)
chain: NSHLLPRPLRHLAS

normalised SPOT signal, Boehringer light units (BLU); mean over the file's lines of this peptide [1]: 362
normalised SPOT signal, Boehringer light units (BLU); mean over the file's lines of this peptide [2]: 95.7
B18: P54296 461-474 (peptide)
chain: NSAGISRPSRVSDA

normalised SPOT signal, Boehringer light units (BLU); mean over the file's lines of this peptide [1]: 4.9
normalised SPOT signal, Boehringer light units (BLU); mean over the file's lines of this peptide [2]: 81.5
B19: P30049 3-16 (peptide)
chain: PAALLRRPGLGRLV

normalised SPOT signal, Boehringer light units (BLU); mean over the file's lines of this peptide [1]: 30.4
normalised SPOT signal, Boehringer light units (BLU); mean over the file's lines of this peptide [2]: 31.6
B22: O60289 975-988 (peptide)
chain: ARKQPRRPHFLLEP

normalised SPOT signal, Boehringer light units (BLU); mean over the file's lines of this peptide [1]: 64.4
normalised SPOT signal, Boehringer light units (BLU); mean over the file's lines of this peptide [2]: 2200
B25: P27816 749-762 (peptide)
chain: PAAPPKRPAVASAR

normalised SPOT signal, Boehringer light units (BLU); mean over the file's lines of this peptide [1]: 78.8
normalised SPOT signal, Boehringer light units (BLU); mean over the file's lines of this peptide [2]: 464
B32: Q96T16 198-211 (peptide)
chain: NSRNPRRPPPSSVN

normalised SPOT signal, Boehringer light units (BLU); mean over the file's lines of this peptide [1]: 6.6
normalised SPOT signal, Boehringer light units (BLU); mean over the file's lines of this peptide [2]: 366
B34: Q92187 271-284 (peptide)
chain: NKVPIKRPSTGLLM

normalised SPOT signal, Boehringer light units (BLU); mean over the file's lines of this peptide [1]: 370
normalised SPOT signal, Boehringer light units (BLU); mean over the file's lines of this peptide [2]: 1560
B38: Q9NNY5 699-712 (peptide)
chain: NLLPPKRPIKEVLT

normalised SPOT signal, Boehringer light units (BLU); mean over the file's lines of this peptide [1]: 37.6
normalised SPOT signal, Boehringer light units (BLU); mean over the file's lines of this peptide [2]: 84
B40: Q96BJ8 361-375 (peptide)
chain: NVPIPERPPPVPPP

normalised SPOT signal, Boehringer light units (BLU); mean over the file's lines of this peptide [1]: 17.3
normalised SPOT signal, Boehringer light units (BLU); mean over the file's lines of this peptide [2]: 44.7
B42: Q9Y5X7 8-21 (peptide)
chain: NINGIRRPLQGVAN
